For the assay, the target named is T1, PIFtide (24 residue synthetic peptide encompassing the PDK1 binding site on PIF) (human).
T1 construct: also called wild type PIF peptide; 24 residue PIF peptide
T1 peptide: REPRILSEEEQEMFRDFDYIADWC
The experiment in a line: method not stated.

B1: GST-PDK1[I119A] (enzyme, not shown: a dimerising Fc or GST; small tags and cut ends)
chain: MARTTSQLYDAVPIQSSVVLCSCPSPSMVRTQTESSTPPGIPGGSRQGPAMDGTAAEPRPGAGSLQHAQPPPQPRKKRPEDFKFGKILGEGSFSTVVLARELATSREYAIKILEKRHIAKENKVPYVTRERDVMSRLDHPFFVKLYFTFQDDEKLYFGLSYAKNGELLKYIRKIGSFDETCTRFYTAEIVSALEYLHGKGIIHRDLKPENILLNEDMHIQITDFGTAKVLSPESKQARANSFVGTAQYVSPELLTEKSACKSSDLWALGCIIYQLVAGLPPFRAGNEYLIFQKIIKLEYDFPEKFFPKARDLVEKLLVLDATKRLGCEEMEGYGPLKAHPFFESVTWENLHQQTPPKLTAYLPAMSEDDEDCYGNYDNLLSQFGCMQVSSSSSSHSLSASDTGLPQRSGSNIEQYIHDLDSNSFELDLQFSEDEKRLLLEKQAGGNPWHQFVENNLILKMGPVDKRKGLFARRRQLLLTEGPHLYYVDPVNKVLKGEIPWSQELRPEAKNFKTFFVHTPNRTYYLMDPSGNAHKWCRKIQEVWRQRYQSHPDAAVQ
For the molecule B1, the “fold decrease in affinity (against wild type PDK1)” value is approximately 10 fold.

For the origin of these results see patent publication US20080009025A1 (published 2008).
